Like-named read-outs stand apart in the source and are kept apart here.
What was measured:
[1] = biological target: T1, GST-Sall1 (full length) (mouse, UniProt Q9ER74 1-1322); assay: pull-down
T1 sequence (looked up): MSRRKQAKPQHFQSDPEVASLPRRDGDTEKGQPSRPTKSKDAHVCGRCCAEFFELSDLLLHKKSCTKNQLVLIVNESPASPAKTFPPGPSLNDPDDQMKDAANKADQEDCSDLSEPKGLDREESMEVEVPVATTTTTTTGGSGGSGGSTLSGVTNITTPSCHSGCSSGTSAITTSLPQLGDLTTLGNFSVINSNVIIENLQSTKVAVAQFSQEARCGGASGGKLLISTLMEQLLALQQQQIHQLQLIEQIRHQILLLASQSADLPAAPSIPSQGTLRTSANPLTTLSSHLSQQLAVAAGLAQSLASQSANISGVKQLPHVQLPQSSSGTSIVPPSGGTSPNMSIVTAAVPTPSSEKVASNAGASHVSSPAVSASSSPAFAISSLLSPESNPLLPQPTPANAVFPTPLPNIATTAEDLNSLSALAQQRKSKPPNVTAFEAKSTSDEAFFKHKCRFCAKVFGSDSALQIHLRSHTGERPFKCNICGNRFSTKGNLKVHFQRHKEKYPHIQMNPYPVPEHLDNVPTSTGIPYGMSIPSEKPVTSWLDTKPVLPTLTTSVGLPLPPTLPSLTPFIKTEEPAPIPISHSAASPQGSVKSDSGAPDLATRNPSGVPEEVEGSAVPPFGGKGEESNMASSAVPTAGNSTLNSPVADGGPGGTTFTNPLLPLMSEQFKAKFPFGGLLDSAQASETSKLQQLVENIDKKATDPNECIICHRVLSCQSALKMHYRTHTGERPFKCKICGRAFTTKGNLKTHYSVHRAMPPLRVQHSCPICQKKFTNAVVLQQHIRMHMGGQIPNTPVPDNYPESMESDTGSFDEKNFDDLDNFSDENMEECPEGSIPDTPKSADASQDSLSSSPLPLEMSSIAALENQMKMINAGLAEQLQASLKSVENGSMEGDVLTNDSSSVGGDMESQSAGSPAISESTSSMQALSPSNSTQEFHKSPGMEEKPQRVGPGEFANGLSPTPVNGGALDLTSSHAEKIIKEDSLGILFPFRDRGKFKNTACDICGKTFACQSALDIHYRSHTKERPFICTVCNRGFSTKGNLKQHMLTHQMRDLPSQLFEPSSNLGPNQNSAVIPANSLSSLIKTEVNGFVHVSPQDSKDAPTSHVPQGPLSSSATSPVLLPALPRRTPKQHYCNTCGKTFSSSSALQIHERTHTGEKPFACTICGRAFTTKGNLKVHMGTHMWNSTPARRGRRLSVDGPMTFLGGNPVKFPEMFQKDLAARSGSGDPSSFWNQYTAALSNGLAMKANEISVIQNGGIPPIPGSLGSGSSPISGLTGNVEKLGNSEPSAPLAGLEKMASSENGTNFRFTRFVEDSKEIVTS

[2] = biological target: T1, GST-Sall1 (full length); assay: pull-down; remark: listed apart in the source

B1: His-Sox2 (full length) (natural protein)
chain: not shown
binding result [1]: binds | binding result [2]: binds

B2: His-Sox2 aa 1-240 (domain or fragment)
chain: not shown
binding result [1]: binds

From paper PMC3020710 (The Journal of Biological Chemistry, 2010)
